Experimental data published in patent US20240207216A1, “COMPOSITIONS AND METHOD FOR TREATING GUT PERMEABILITY CAUSED BY HYDROGEN SULFIDE PRODUCING BACTERIA” (UNM RAINFOREST INNOVATIONS, priority 2022, published 2024).

B1: intestinal alkaline phosphatase (protein, UniProt P09923 20-503, looked up)
Intestinal-type alkaline …: VIPAEEENPAFWNRQAAEALDAAKKLQPIQKVAKNLILFLGDGLGVPTVTATRILKGQKNGKLGPETPLAMDRFPYLALSKTYNVDRQVPDSAATATAYLCGVKANFQTIGLSAAARFNQCNTTRGNEVISVMNRAKQAGKSVGVVTTTRVQHASPAGTYAHTVNRNWYSDADMPASARQEGCQDIATQLISNMDIDVILGGGRKYMFPMGTPDPEYPADASQNGIRLDGKNLVQEWLAKHQGAWYVWNRTELMQASLDQSVTHLMGLFEPGDTKYEIHRDPTLDPSLMEMTEAALRLLSRNPRGFYLFVEGGRIDHGHHEGVAYQALTEAVMFDDAIERAGQLTSEEDTLTLVTADHSHVFSFGGYTLRGSSIFGLAPSKAQDSKAYTSILYGNGPGYVFNSGVRPDVNESESGSPDYQQQAAVPLSSETHGGEDVAVFARGPQAHLVHGVQEQSFVAHVMAFAACLEPYTACDLAPPACTTD
notes: host defense protein produced by enterocytes in the small intestine

Legend:
[1] = system: Desulfovibrio desulfuricans; conditions: cited from earlier work
polarized Caco-2 cells = test: DSV-induced paracellular permeability, 4 kDa FITC-dextran flux; type: cell-based, Human; conditions: IAP 500 U/ml apical and basolateral, 24 h before DSV MOI 20 for 24 h; vs DSV+Veh
Procedure: FIG. 7. Rapamycin reduces DSV-induced paracellular permeability. Human Caco-2 cells were grown in 0.4 μm trans-well inserts for three weeks to generate polarized intestinal epithelial monolayers. Cells were treated with 100 nM rapamycin, an inducer of autophagy, for two hours followed by DSV infection (MOI 20) for 24 hours. Barrier integrity was assessed by measuring paracellular flux of 4 kDa FITC-Dextran.
Human colonic epithelial cells Caco-2 were purchased from the American Type Culture Collection (ATCC, Manassas, VA). Cells were grown in DMEM+20% FBS+penicillin and streptomycin (Thermo Fisher Scientific, Inc., Waltham, MA). Cells were grown at 37° C. in a humidified incubator with 5% CO2. […]
Tight junction barrier integrity in 21-day old polarized Caco-2 cells grown in 12-well trans-well plates was assessed via transepithelial electric resistance (TEER) using EVOM meter (World Precision Instruments, LLC, Sarasota, FL). […] Paracellular permeability was quantified by measuring FITC-dextran flux (Fluorescein isothiocyanate-dextran 4000 (FD-4), Sigma-Aldrich, St. Louis, MO). […] After one hour of incubation, 100 μl of the basolateral medium was collected and analyzed for the presence of FITC fluorescence. Fluorescence was measured at the wavelengths of excitation at 485 nm and emission at 520 nm using a plate reader (Synergy HTX Multi-Mode Reader, BioTek, Winooski, VT). […]

Snail [2] = test: DSV-induced Snail protein expression by Western blot; type: cell-based, Human; conditions: IAP 500 U/ml pre-treatment 24 h, DSV 24 h; vs DSV+Veh
Procedure: FIG. 16. Rapamycin reduces DSV-induced Snail protein expression. Polarized Caco-2 cells were treated with 100 nM rapamycin for two hours, followed by DSV infection (MOI 20) for 24 hours. Cells were harvested and lysed. (A) Protein lysate was analyzed for Snail expression by Western blotting. (B) Quantitation of Snail expression from Western blot in (A). DSV: 7.14±0.73; DSV+Rapamycin: 3.10±0.74, **p<0.01.
Human colonic epithelial cells Caco-2 were purchased from the American Type Culture Collection (ATCC, Manassas, VA). Cells were grown in DMEM+20% FBS+penicillin and streptomycin (Thermo Fisher Scientific, Inc., Waltham, MA). Cells were grown at 37° C. in a humidified incubator with 5% CO2. To allow polarization and differentiation, cells were seeded at a density of 5×10^3 cells/well in 12-well 0.4 μm trans-well inserts for three weeks. Twenty-four hours before infection, growth medium was replaced with colorless medium (DMEM+20^0/o FBS) without antibiotics. […]
Cells were lysed in lysis buffer (Thermo Fisher Scientific, Inc., Waltham, MA; catalog #87787) containing protease and phosphatase inhibitors (Thermo Fisher Scientific, Inc., Waltham, MA; catalog #1861281) for 20 minutes at 4° C. with shaking. […] Protein concentration in the supernatants was determined with Bradford reagent (Bio-Rad Laboratories, Inc., Hercules, CA). […]

Snail [3] = test: DSV-induced Snail nuclear localization by immunofluorescence; type: cell-based, Human; conditions: IAP pre-treatment, DSV infection; vs DSV+Veh
Procedure: FIG. 5. Intestinal Alkaline Phosphatase inhibits DSV-induced permeability by inhibiting Snail. Polarized Caco-2 cells were pre-treated with IAP (500 U/ml) at the apical and the basolateral surface for 24 hours prior to challenge with D. vulgaris. (A) FITC-dextran was added to the cells apically after 24 hours infection with D. vulgaris. Fluorescence was measured by taking out 100 μl medium from the basolateral surface after one-hour incubation. Graph represents Mean±SEM of % FITC-flux compared to uninfected control cells from at least three independent experiments. **p<0.01. (B) Snail protein expression was analyzed by Western blotting in cells pre-treated with or without IAP followed by infection with D. vulgaris. The solution in which IAP was supplied was used as a Vehicle control. Actin was used as a loading control. (C) Quantification of Western blot for detection of Snail. Graph represents Mean±SEM of ratio of Snail/Actin and values were normalized to control from at least three independent experiments. *p<0.05. (D) Cells were pre-treated with or without IAP followed by infection with D. vulgaris. Cells were fixed with 4% paraformaldehyde and probed by immunofluorescence for Snail staining. Graph represents quantification of % cells showing nuclear staining of Snail in control, DSV+Vehicle (Veh), or DSV+IAP treated groups. […]

occludin = test: Occludin localization by immunofluorescence in DSV-infected cells; type: cell-based, Human; conditions: IAP pre-treatment, DSV infection (DSV+IAP)

Molecule | growth of Desulfovibrio desulfuricans [1] | D. vulgaris-induced FITC-dextran flux (polarized Caco-2 cells) | Snail protein expression (Snail [2]) | percentage of cells with nuclear localization of Snail (Snail [3]) | occludin staining (occludin)
[Bi] [bismuth] | inhibits the growth |  |  |  | 
B1 |  | inhibited | significantly reduced | significant reduction | comparable to control
